Numbered stars: 1 amine (or outer) side, 2 acyl side, 3 side chain; on linkers, the order of the positions; unused ones are H or OH. * marks the point of attachment. C20 diacid = O=C(O)CCCCCCCCCCCCCCCCCCC(=O)*; C18 diacid = O=C(O)CCCCCCCCCCCCCCCCC(=O)*; γGlu = O=C(O)[C@H](CCC(=O)[*:2])N[*:1]
T1: human amylin receptor (human calcitonin receptor + human RAMP3) (human) (UniProt P30988)
T1 sequence (looked up) 1: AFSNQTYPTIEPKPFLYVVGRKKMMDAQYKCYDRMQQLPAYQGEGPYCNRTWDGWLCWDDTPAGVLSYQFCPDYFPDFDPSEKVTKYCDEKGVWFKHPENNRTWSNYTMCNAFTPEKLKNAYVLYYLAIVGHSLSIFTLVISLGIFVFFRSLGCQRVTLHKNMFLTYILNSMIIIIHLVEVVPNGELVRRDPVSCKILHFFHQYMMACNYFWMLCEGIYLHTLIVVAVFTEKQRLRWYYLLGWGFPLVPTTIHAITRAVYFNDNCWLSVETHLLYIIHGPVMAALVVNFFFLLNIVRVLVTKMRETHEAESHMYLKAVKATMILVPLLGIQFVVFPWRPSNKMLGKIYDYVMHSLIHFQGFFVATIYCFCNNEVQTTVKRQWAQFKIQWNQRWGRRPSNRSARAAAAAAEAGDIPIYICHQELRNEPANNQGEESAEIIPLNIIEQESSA
T1 sequence (looked up) 2: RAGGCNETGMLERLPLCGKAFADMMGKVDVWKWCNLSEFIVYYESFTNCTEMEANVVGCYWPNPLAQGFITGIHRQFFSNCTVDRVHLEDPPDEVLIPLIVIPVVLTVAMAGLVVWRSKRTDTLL


Target: T1, human amylin receptor (human calcitonin receptor + human RAMP3) (human)
Test: whole-cell competition vs 125I-rat amylin (Assay Va)

IC50 [nM] | Binder
22 | {C18 diacid-γGlu}-ASELSTAALGRLSAELHELATLPRTETGSGPP-NH2 (SMILES CC(C)C[C@H](NC(=O)[C@H](C)NC(=O)[C@H](C)NC(=O)[C@@H](NC(=O)[C@H](CO)NC(=O)[C@H](CC(C)C)NC(=O)[C@H](CCC(=O)O)NC(=O)[C@H](CO)NC(=O)[C@H](C)NC(=O)CC[C@H](NC(=O)CCCCCCCCCCCCCCCCC(=O)O)C(=O)O)[C@@H](C)O)C(=O)NCC(=O)N[C@@H](CCCNC(=N)N)C(=O)N[C@@H](CC(C)C)C(=O)N[C@@H](CO)C(=O)N[C@@H](C)C(=O)N[C@@H](CCC(=O)O)C(=O)N[C@@H](CC(C)C)C(=O)N[C@@H](Cc1c[nH]cn1)C(=O)N[C@@H](CCC(=O)O)C(=O)N[C@@H](CC(C)C)C(=O)N[C@@H](C)C(=O)N[C@H](C(=O)N[C@@H](CC(C)C)C(=O)N1CCC[C@H]1C(=O)N[C@@H](CCCNC(=N)N)C(=O)N[C@H](C(=O)N[C@@H](CCC(=O)O)C(=O)N[C@H](C(=O)NCC(=O)N[C@@H](CO)C(=O)NCC(=O)N1CCC[C@H]1C(=O)N1CCC[C@H]1C(N)=O)[C@@H](C)O)[C@@H](C)O)[C@@H](C)O) [[N-terminal(C18 diacid-gGlu), des1, 30S, 31G, 32P]mimylin]
0.764 | {C18 diacid-γGlu}-ASELSTAVLGRLSAELHELATLPRTETGSGSP-NH2 (SMILES CC(C)C[C@H](NC(=O)[C@H](CCC(=O)O)NC(=O)[C@H](Cc1c[nH]cn1)NC(=O)[C@H](CC(C)C)NC(=O)[C@H](CCC(=O)O)NC(=O)[C@H](C)NC(=O)[C@H](CO)NC(=O)[C@H](CC(C)C)NC(=O)[C@H](CCCNC(=N)N)NC(=O)CNC(=O)[C@H](CC(C)C)NC(=O)[C@@H](NC(=O)[C@H](C)NC(=O)[C@@H](NC(=O)[C@H](CO)NC(=O)[C@H](CC(C)C)NC(=O)[C@H](CCC(=O)O)NC(=O)[C@H](CO)NC(=O)[C@H](C)NC(=O)CC[C@H](NC(=O)CCCCCCCCCCCCCCCCC(=O)O)C(=O)O)[C@@H](C)O)C(C)C)C(=O)N[C@@H](C)C(=O)N[C@H](C(=O)N[C@@H](CC(C)C)C(=O)N1CCC[C@H]1C(=O)N[C@@H](CCCNC(=N)N)C(=O)N[C@H](C(=O)N[C@@H](CCC(=O)O)C(=O)N[C@H](C(=O)NCC(=O)N[C@@H](CO)C(=O)NCC(=O)N[C@@H](CO)C(=O)N1CCC[C@H]1C(N)=O)[C@@H](C)O)[C@@H](C)O)[C@@H](C)O) [[N-terminal(C18 diacid-gGlu), des1, 9V, 30S, 31G]mimylin]
0.606 | {C20 diacid-γGlu}-ASELSTAALGRLSAELHELATLPRTETGTGTP-NH2 (SMILES CC(C)C[C@H](NC(=O)[C@H](C)NC(=O)[C@H](C)NC(=O)[C@@H](NC(=O)[C@H](CO)NC(=O)[C@H](CC(C)C)NC(=O)[C@H](CCC(=O)O)NC(=O)[C@H](CO)NC(=O)[C@H](C)NC(=O)CC[C@H](NC(=O)CCCCCCCCCCCCCCCCCCC(=O)O)C(=O)O)[C@@H](C)O)C(=O)NCC(=O)N[C@@H](CCCNC(=N)N)C(=O)N[C@@H](CC(C)C)C(=O)N[C@@H](CO)C(=O)N[C@@H](C)C(=O)N[C@@H](CCC(=O)O)C(=O)N[C@@H](CC(C)C)C(=O)N[C@@H](Cc1c[nH]cn1)C(=O)N[C@@H](CCC(=O)O)C(=O)N[C@@H](CC(C)C)C(=O)N[C@@H](C)C(=O)N[C@H](C(=O)N[C@@H](CC(C)C)C(=O)N1CCC[C@H]1C(=O)N[C@@H](CCCNC(=N)N)C(=O)N[C@H](C(=O)N[C@@H](CCC(=O)O)C(=O)N[C@H](C(=O)NCC(=O)N[C@H](C(=O)NCC(=O)N[C@H](C(=O)N1CCC[C@H]1C(N)=O)[C@@H](C)O)[C@@H](C)O)[C@@H](C)O)[C@@H](C)O)[C@@H](C)O) [[N-terminal(C20 diacid-gGlu), des1, 30T, 31G, 32T]mimylin]
